Substrate in series [1]: N[C@@H](CO)C(=O)O
Nature of the series: purified protein.

Substrate in series [2]: Nc1ncnc2c1ncn2[C@@H]1O[C@H](COP(=O)(O)OP(=O)(O)OP(=O)(O)O)[C@@H](O)[C@H]1O
Nature of the series: purified protein.

B1: SARS2 (human mitochondrial seryl-tRNA synthetase, mature form) (Homo sapiens; INS217NLSP/K218R) (protein)
chain: TTEKRNRNLLYEYAREGYSALPQLDIERFCACPEEAAHALELRKGELRSADLPAIISTWQELRQLQEQIRSLEEEKAAVTEAVRALLANQDSGEVQQDPKYQGLRARGREIRKELVHLYPREAQLEEQFYLQALKLPNQTHPDVPVGDESQARVLHMVGDKPVFSFQPRGHLEIGEKLDIIRQNLSPRRLSHVSGHRSYYLRGAGALLQHGLVNFTFNKLLRRGFTPMTVPDLLRGAVFEGCGMTPNANPSQIYNIDPARFKDLNLAGTAEVGLAGYFMDHTVAFRDLPVRMVCSSTCYRAETNTGQEPRGLYRVHHFTKVEMFGVTGPGLEQSSQLLEEFLSLQMEILTELGLHFRVLDMPTQELGLPAYRKFDIEAWMPGRGRFGEVTSASNCTDFQSRRLHIMFQTEAGELQFAHTVNATACAVPRLLIALLESNQQKDGSVLVPPALQSYLGTDRITAPTHVPLQYIGPNQPRKPGLPGQPAVS
Broadly, the Km is the concentration of substrate that gives half-maximal velocity. With B1, the Km in “purified protein [1]” came out at 1660 ± 30 µM; in “purified protein [2]”, 64.69 ± 4.48 µM.

For the origin of these results see publication PMC9723649.
